Measured values taken from PMC6376029, “Diversity within the adenovirus fiber knob hypervariable loops influences primary receptor interactions” (Nature Communications, 2019).

Assays:
[1] = target: HAdV-D48 fiber-knob protein (human adenovirus D serotype 48); assay: crystal structure; sitting-drop vapour diffusion, 18 C, protein about 7.5 mg/ml in 10 mM Tris pH 8.0, 30 mM NaCl; data at 100 K, Diamond I04
[2] = target: Recombinant Human CXADR Fc Chimera Protein (CAR) (human) (UniProt P78310); assay: SPR; BIAcore 3000, CM5 chip, about 5000 RU of receptor (CD46, CAR or DSG2) amine-coupled; fiber-knob injected; single cycle kinetics, top concentration around 200 uM with four 1:3 dilutions; 25 C, PBS, 30 ul/min
[3] = target: Recombinant Human Desmoglein-2 Fc Chimera Protein (human) (UniProt Q14126); assay: SPR; BIAcore 3000, CM5 chip, about 5000 RU of receptor amine-coupled; equilibrium binding analysis of HAdV-D26K (367 uM) and HAdV-B3K (3 uM as printed), 5x 1:3 serial dilutions; 1:1 Langmuir fit; 25 C, PBS, 30 ul/min
Chain of Recombinant Human Desmoglein-2 Fc Chimera Protein (human) (Q14126 50-609, stated change not applied): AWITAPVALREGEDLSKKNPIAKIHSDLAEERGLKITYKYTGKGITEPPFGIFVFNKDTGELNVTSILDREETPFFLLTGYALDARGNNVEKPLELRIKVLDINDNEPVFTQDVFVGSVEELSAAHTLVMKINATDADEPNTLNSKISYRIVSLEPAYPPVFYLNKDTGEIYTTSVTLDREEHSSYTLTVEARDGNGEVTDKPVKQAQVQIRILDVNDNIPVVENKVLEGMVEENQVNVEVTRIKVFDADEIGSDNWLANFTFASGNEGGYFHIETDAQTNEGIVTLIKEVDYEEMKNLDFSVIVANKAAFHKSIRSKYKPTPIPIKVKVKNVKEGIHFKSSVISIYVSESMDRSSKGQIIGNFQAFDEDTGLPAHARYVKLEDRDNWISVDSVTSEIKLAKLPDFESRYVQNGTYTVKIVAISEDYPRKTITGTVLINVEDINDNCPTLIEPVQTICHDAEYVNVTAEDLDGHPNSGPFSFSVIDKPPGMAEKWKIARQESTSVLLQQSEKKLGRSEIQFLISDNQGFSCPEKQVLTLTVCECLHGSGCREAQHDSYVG

[4] = target: HAdV-D26 fiber-knob protein (human adenovirus D serotype 26); assay: crystal structure; sitting-drop vapour diffusion, 18 C, protein about 7.5 mg/ml in 10 mM Tris pH 8.0, 30 mM NaCl; data at 100 K, Diamond I04
[5] = target: Recombinant Human CD46 Protein (His Tag) (human) (UniProt P15529); assay: SPR; BIAcore 3000, CM5 chip, about 5000 RU of receptor amine-coupled; equilibrium binding analysis of HAdV-D26K (367 uM) and HAdV-B3K (3 uM as printed), 5x 1:3 serial dilutions; 1:1 Langmuir fit; 25 C, PBS, 30 ul/min
[6] = target: T1, Recombinant Human CD46 Protein (His Tag) (human, UniProt P15529 35-343); assay: SPR
T1 chain: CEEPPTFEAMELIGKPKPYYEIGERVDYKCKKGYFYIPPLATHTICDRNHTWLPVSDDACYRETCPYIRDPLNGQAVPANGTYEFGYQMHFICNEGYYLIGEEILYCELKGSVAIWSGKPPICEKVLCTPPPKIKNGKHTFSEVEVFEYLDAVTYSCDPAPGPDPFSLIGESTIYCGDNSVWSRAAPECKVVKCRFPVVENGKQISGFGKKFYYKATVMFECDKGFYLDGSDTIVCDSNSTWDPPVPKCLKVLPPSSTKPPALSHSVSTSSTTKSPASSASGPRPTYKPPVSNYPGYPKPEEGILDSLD

[7] = target: T1, Recombinant Human CD46 Protein (His Tag); assay: SPR
[8] = target: T2, Recombinant Human CXADR Fc Chimera Protein (CAR) (human, UniProt P78310); assay: SPR
T2 chain: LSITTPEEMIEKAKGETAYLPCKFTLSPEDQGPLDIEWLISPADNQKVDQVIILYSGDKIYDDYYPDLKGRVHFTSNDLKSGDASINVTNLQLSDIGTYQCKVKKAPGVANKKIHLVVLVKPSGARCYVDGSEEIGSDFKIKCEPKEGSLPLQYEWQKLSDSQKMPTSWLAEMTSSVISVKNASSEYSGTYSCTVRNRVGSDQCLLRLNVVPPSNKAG

[9] = target: T2, Recombinant Human CXADR Fc Chimera …; assay: SPR
[10] = target: T3, Recombinant Human CXADR Fc Chimera Protein (CAR) (human, UniProt P78310); assay: SPR; BIAcore 3000, CM5 chip, about 5000 RU of receptor (CD46, CAR or DSG2) amine-coupled; fiber-knob injected; single cycle kinetics, top concentration around 200 uM with four 1:3 dilutions; 25 C, PBS, 30 ul/min; details: both partners purified
T3 construct: human Coxsackie and Adenovirus Receptor (CXADR) part of a commercial Fc chimera; Probably the extracellular domain fused to human IgG1 Fc (recalled); source: bought: R&D Systems
T3 sequence: T2 chain

HAdV-D48 fiber-knob protein (domain or fragment)
stoichiometry N [1]: 3
fold higher affinity than HAdV-D26K [2]: 2 fold

HAdV-B3 fiber-knob protein (from UniProt P04501 1-319) (domain or fragment)
Kd [3]: 66.9 µM

HAdV-D26 fiber-knob protein (domain or fragment)
stoichiometry N [4]: 3
fold weaker affinity (KD) than HAdV-B35K [5]: > 1500 fold

B1: HAdV-B35 fiber-knob protein (domain or fragment)
chain: TLWTGINPPPNCQIVENTNTNDGKLTLVLVKNGGLVNGYVSLVGVSDTVNQMFTQKTANIQLRLYFDSSGNLLTEESDLKIPLKNKSSTATSETVASSKAFMPSTTAYPFNTTTRDSENYIHGICYYMTSYDRSLFPLNISIMLNSRMISSNVAYAIQFEWNLNASESPESNIATLTTSPFFFSYITEDDN
koff [6]: 0.032 s⁻¹
Kd [7]: 0.027 µM

B2: HAdV-D48 fiber-knob protein (domain or fragment)
chain: DKLTLWTTPDPSPNCKIDQDKDSKLTFVLTKCGSQILANMSLLVVKGKFSMINNKVNGTDDYKKFTIKLLFDEKGVLLKDSSLDKEYWNYRSNNNNVGSAYEEAVGFMPSTTAYPKPPTPPTNPTTPLEKSQAKNKYVSNVYLGGQAGNPVATTVSFNKETGCTYSITFDFAWNKTYENVQFDSSFLTFSYIAQE
koff [8]: 0.0024 s⁻¹
Kd [9]: 9.3 µM

B3: HAdV-D26 fiber-knob protein (domain or fragment)
chain: RRTLWTTPDTSPNCKMSTEKDSKLTLTLTKCGSQVLGNVSLLAVTGEYHQMTATTKKDVKISLLFDENGILLPSSSLSKDYWNYRSDDSIVSQKYNNAVPFMPNLTAYPKPSAQNAKNYSRTKIISNVYLGALTYQPVIITIAFNQETENGCAYSITFTFTWQKDYSAQQFDVTSFTFSYLTQE
Kd [9]: 21 µM

B4: HAdV-C5 fiber-knob protein (domain or fragment)
chain: KNNDKLTLWTTPAPSPNCRLNAEKDAKLTLVLTKCGSQILATVSVLAVKGSLAPISGTVQSAHLIIRFDENGVLLNNSFLDPEYWNFRNGDLTEGTAYTNAVGFMPNLSAYPKSHGKTAKSNIVSQVYLNGDKTKPVTLTITLNGTQETGDTTPSAYSMSFSWDWSGHNYINEIFATSSYTFSYIAQE
notes: fiber-knob domain of the fiber protein (pIV) of human adenovirus species C serotype 5; Vector pQE-30 probably adds an N-terminal His6 tag (surmised); also called HAdV-C5K; HAdV-C5 fiber-knob domain
koff [8]: 0.0016 s⁻¹
Kd [10]: 0.00076 µM
